The text below walks through data of patent publication US20230406950A1 (LYVGEN BIOPHARMA, published 2023).

Test [1] addresses T1, human OX40 expressed on CHO cells (human, UniProt P43489 29-277).
T1 construct: whole, on cells
T1 sequence (looked up): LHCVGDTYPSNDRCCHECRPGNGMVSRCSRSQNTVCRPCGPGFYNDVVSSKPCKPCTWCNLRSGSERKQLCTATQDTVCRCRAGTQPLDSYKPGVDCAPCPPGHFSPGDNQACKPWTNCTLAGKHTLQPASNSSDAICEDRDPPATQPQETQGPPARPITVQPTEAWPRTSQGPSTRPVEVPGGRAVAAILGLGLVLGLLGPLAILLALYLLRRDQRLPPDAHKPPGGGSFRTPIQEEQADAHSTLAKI
Put plainly: FACS on CHO cells expressing human OX40 (MFI). As to the method: (§1) Anti-OX40/CD137 bi-specific antibodies were analyzed by FACS for their binding properties to human OX40 and/or human CD137 expressed on CHO cells. Briefly, cultured cells were harvested, counted and cell viability was evaluated using the Trypan Blue exclusion method. Viable cells were then adjusted to 2×10⁶ cells per mL in PBS containing 2% BSA. 100 μL of this cell suspension were further aliquoted per well into a V-bottom 96-well plate. […] After incubation for 2 hours at 4° C., cells were centrifuged (3 min, 1000×g), washed with 250 μL/well BSA-containing FACS Stain Buffer, resuspended and incubated for an additional 1 hour at 4° C. with 100 μL/well fluorochrome-conjugated anti-IgG antibody for detection of the bisepecific antibody. Cells were then washed with 250 μL/well BSA-containing FACS Stain Buffer, resuspended in 100 μL/well FACS Stain Buffer, acquired and analyzed using a FACS machine. Binding of the bispecific antibodies to human OX40 or human CD137 expressing CHO cells were evaluated and the mean fluorescence intensity is plotted in histograms or dot plots.

The target in test [2] is T2, human CD137 expressed on cells (human, UniProt Q07011 24-255).
T2 construct: whole, on cells; also called 4-1BB; TNFRSF9
T2 sequence (Q07011 24-255): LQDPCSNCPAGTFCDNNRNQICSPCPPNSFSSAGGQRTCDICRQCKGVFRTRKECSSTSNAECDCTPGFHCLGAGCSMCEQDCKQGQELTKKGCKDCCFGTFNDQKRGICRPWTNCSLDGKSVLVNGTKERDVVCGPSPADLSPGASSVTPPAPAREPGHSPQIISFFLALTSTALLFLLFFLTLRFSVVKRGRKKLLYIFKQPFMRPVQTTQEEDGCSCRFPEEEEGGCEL
Put plainly: FACS on CHO cells expressing human CD137 (MFI). As to the method:
as §1

For test [3], the target named is T3, human GITR expressed on cells (human, UniProt Q9Y5U5 26-241).
T3 construct: whole, on cells; also called TNFRSF18; CD357
T3 sequence (looked up): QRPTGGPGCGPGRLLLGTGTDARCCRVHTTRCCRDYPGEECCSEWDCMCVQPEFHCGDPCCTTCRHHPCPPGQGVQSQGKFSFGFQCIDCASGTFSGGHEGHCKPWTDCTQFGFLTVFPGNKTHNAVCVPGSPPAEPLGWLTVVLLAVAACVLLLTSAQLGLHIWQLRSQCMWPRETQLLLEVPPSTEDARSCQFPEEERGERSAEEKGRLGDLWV
Briefly: flow cytometry (FACS), MFI, CHO cells expressing human GITR. Here is the method: as §1, with “Anti-GITR/CD137” for “Anti-OX40/CD137”, “GITR” for “OX40”, “1000× g),” for “1000×g),”
A general note: In flow cytometry, cells or beads pass a laser one at a time.

Test [4] concerns the target T2, human CD137 expressed on cells. Put plainly: FACS on CHO cells expressing human CD137 (MFI). Here is the method:
as §1, with “Anti-GITR/CD137” for “Anti-OX40/CD137”, “GITR” for “OX40”, “1000× g),” for “1000×g),”
This is another data set of the same source.

Where two headings read alike, the source gives them in different places.

B1: Ly762 (bispecific antibody, human IgG1, kappa)
heavy: QVQLVQSGAEVKKPGASVKVSCKASGYTFAGFEMHWVRQAPGQGLEWMGAIDPKTGGTDYNQKFKDRVTMTRDTSISTAYMELSRLRSDDTAVYYCARDLGYFDVWGQGTLVTVSSASTKGPSVFPLAPSSKSTSGGTAALGCLVKDYFPEPVTVSWNSGALTSGVHTFPAVLQSSGLYSLSSVVTVPSSSLGTQTYICNVNHKPSNTKVDKKVEPKSCDKTHTCPPCPAPELLGPSVFLFPPKPKDTLMISRTPEVTCVVVDVSHEDPEVKFNWYVDGVEVHNAKTKPREEQYNSTYRVVSVLTVLHQDWLNGKEYKCKVSNKALPAPIEKTISKAKGQPREPQVYTLPPSREEMTKNQVSLTCLVKGFYPSDIAVEWESNGQPENNYKTTPPVLDSDGSFFLYSKLTVDKSRWQQGNVFSCSVMHEALHNHYTQKSLSLSPGGGGGSGGGGSGGGGSGGGGSDIQMTQSPSSLSASVGDRVTITCRASQDISNYLNWYQQKPGKAPKLLIYYTSRLRSGVPSRFSGSGSGTDFTLTISSLQPEDFATYYCQQGHTLPPTFGQGTKVEIKGGGGSGGGGSGGGGSGGGGSEVQLVQSGAEVKKPGASVKVSCKASGYTFTDSYMSWVRQAPGQGLEWIGDMYPDNGDSSYNQKFRERVTITRDTSTSTAYLELSSLRSEDTAVYYCVLAPRWYFSVWGQGTLVTVSS
light: DIQMTQSPSSLSASVGDRVTITCRASQDIRSNLNWYQQKPGGAVKLLIYYTSRLHSGVPSRFSGSGSGTDYTLTISSLQPEDFATYFCQQSEKLPRTFGGGTKVEIRRTVAAPSVFIFPPSDEQLKSGTASVVCLLNNFYPREAKVQWKVDNALQSGNSQESVTEQDSKDSTYSLSSTLTLSKADYEKHKVYACEVTHQGLSSPVTKSFNRGEC
notes: Ly1630 light chain
With B1, in test [1], the binding result is “binds”. Moreover, in test [2], the “EC50 (read off the curve)” value was about 0.1 µg/mL.

B2: Ly763 (bispecific antibody, human IgG1, kappa)
heavy: QVQLVQSGAEVKKPGASVKVSCKASGYTFAGFEMHWVRQAPGQGLEWMGAIDPKTGGTDYNQKFKDRVTMTRDTSISTAYMELSRLRSDDTAVYYCARDLGYFDVWGQGTLVTVSSASTKGPSVFPLAPSSKSTSGGTAALGCLVKDYFPEPVTVSWNSGALTSGVHTFPAVLQSSGLYSLSSVVTVPSSSLGTQTYICNVNHKPSNTKVDKKVEPKSCDKTHTCPPCPAPELLGPSVFLFPPKPKDTLMISRTPEVTCVVVDVSHEDPEVKFNWYVDGVEVHNAKTKPREEQYNSTYRVVSVLTVLHQDWLNGKEYKCKVSNKALPAPIEKTISKAKGQPREPQVYTLPPSREEMTKNQVSLTCLVKGFYPSDIAVEWESNGQPENNYKTTPPVLDSDGSFFLYSKLTVDKSRWQQGNVFSCSVMHEALHNHYTQKSLSLSPGGGGGSGGGGSGGGGSGGGGSEVQLVQSGAEVKKPGASVKVSCKASGYTFTDSYMSWVRQAPGQGLEWIGDMYPDNGDSSYNQKFRERVTITRDTSTSTAYLELSSLRSEDTAVYYCVLAPRWYFSVWGQGTLVTVSSGGGGSGGGGSGGGGSGGGGSDIQMTQSPSSLSASVGDRVTITCRASQDISNYLNWYQQKPGKAPKLLIYYTSRLRSGVPSRFSGSGSGTDFTLTISSLQPEDFATYYCQQGHTLPPTFGQGTKVEIK
light: B1 light
notes: Ly1630 light chain
As for B2, in test [1], the binding result is on record as “binds”. Besides, in test [2], the “EC50 (read off the curve)” value is about 0.1 µg/mL.

B3: Ly750 (bispecific antibody, human IgG1, kappa)
heavy: QVQLQESGPGLVKPSETLSLTCTVSGFSLTSYNVHWIRQPPGKGLEWIGVIWSGVRTDYNSVLKSRVTISVDTSKNQFSLKLSSVTAADTAVYYCARGTYDANYHDVMDAWGQGTMVTVSSASTKGPSVFPLAPSSKSTSGGTAALGCLVKDYFPEPVTVSWNSGALTSGVHTFPAVLQSSGLYSLSSVVTVPSSSLGTQTYICNVNHKPSNTKVDKKVEPKSCDKTHTCPPCPAPELLGPSVFLFPPKPKDTLMISRTPEVTCVVVDVSHEDPEVKFNWYVDGVEVHNAKTKPREEQYNSTYRVVSVLTVLHQDWLNGKEYKCKVSNKALPAPIEKTISKAKGQPREPQVYTLPPSREEMTKNQVSLTCLVKGFYPSDIAVEWESNGQPENNYKTTPPVLDSDGSFFLYSKLTVDKSRWQQGNVFSCSVMHEALHNHYTQKSLSLSPGGGGGSGGGGSGGGGSGGGGSDIQMTQSPSSLSASVGDRVTITCRASQDIRSNLNWYQQKPGGAVKLLIYYTSRLHSGVPSRFSGSGSGTDYTLTISSLQPEDFATYFCQQSEKLPRTFGGGTKVEIRGGGGSGGGGSGGGGSGGGGSQVQLVQSGAEVKKPGASVKVSCKASGYTFAGFEMHWVRQAPGQGLEWMGAIDPKTGGTDYNQKFKDRVTMTRDTSISTAYMELSRLRSDDTAVYYCARDLGYFDVWGQGTLVTVSS
light: DTVLTQSPATLSLSPGERATLSCRASKSVRTGMHWYQQKPGQAPRLLVYGASNLESGIPARFSGSGSGTDFTLTISSLEPEDFATYFCHQSWNHFTFGQGTKLEIKRTVAAPSVFIFPPSDEQLKSGTASVVCLLNNFYPREAKVQWKVDNALQSGNSQESVTEQDSKDSTYSLSSTLTLSKADYEKHKVYACEVTHQGLSSPVTKSFNRGEC
notes: Anti-GITR/CD137: TM677 heavy chain fused to Ly1630 scFv (VL-VH)
As to B3, in test [3], the binding result is listed as “binds”. Besides, in test [4], the “EC50 (read off the curve)” value is about 0.2 µg/mL.

B4: Ly751 (bispecific antibody, human IgG1, kappa)
heavy: QVQLQESGPGLVKPSETLSLTCTVSGFSLTSYNVHWIRQPPGKGLEWIGVIWSGVRTDYNSVLKSRVTISVDTSKNQFSLKLSSVTAADTAVYYCARGTYDANYHDVMDAWGQGTMVTVSSASTKGPSVFPLAPSSKSTSGGTAALGCLVKDYFPEPVTVSWNSGALTSGVHTFPAVLQSSGLYSLSSVVTVPSSSLGTQTYICNVNHKPSNTKVDKKVEPKSCDKTHTCPPCPAPELLGPSVFLFPPKPKDTLMISRTPEVTCVVVDVSHEDPEVKFNWYVDGVEVHNAKTKPREEQYNSTYRVVSVLTVLHQDWLNGKEYKCKVSNKALPAPIEKTISKAKGQPREPQVYTLPPSREEMTKNQVSLTCLVKGFYPSDIAVEWESNGQPENNYKTTPPVLDSDGSFFLYSKLTVDKSRWQQGNVFSCSVMHEALHNHYTQKSLSLSPGGGGGSGGGGSGGGGSGGGGSQVQLVQSGAEVKKPGASVKVSCKASGYTFAGFEMHWVRQAPGQGLEWMGAIDPKTGGTDYNQKFKDRVTMTRDTSISTAYMELSRLRSDDTAVYYCARDLGYFDVWGQGTLVTVSSGGGGSGGGGSGGGGSGGGGSDIQMTQSPSSLSASVGDRVTITCRASQDIRSNLNWYQQKPGGAVKLLIYYTSRLHSGVPSRFSGSGSGTDYTLTISSLQPEDFATYFCQQSEKLPRTFGGGTKVEIR
light: B3 light
notes: Anti-GITR/CD137: TM677 heavy chain fused to Ly1630 scFv (VH-VL); TM677 light chain
B4: the binding result in test [3] was “binds”. Further, in test [4], the concentration giving a half-maximal response (EC50 (read off the curve)) was about 0.2 µg/mL.

B5: Ly748 (bispecific antibody, human IgG1, kappa)
heavy: QVQLVQSGAEVKKPGASVKVSCKASGYTFAGFEMHWVRQAPGQGLEWMGAIDPKTGGTDYNQKFKDRVTMTRDTSISTAYMELSRLRSDDTAVYYCARDLGYFDVWGQGTLVTVSSASTKGPSVFPLAPSSKSTSGGTAALGCLVKDYFPEPVTVSWNSGALTSGVHTFPAVLQSSGLYSLSSVVTVPSSSLGTQTYICNVNHKPSNTKVDKKVEPKSCDKTHTCPPCPAPELLGPSVFLFPPKPKDTLMISRTPEVTCVVVDVSHEDPEVKFNWYVDGVEVHNAKTKPREEQYNSTYRVVSVLTVLHQDWLNGKEYKCKVSNKALPAPIEKTISKAKGQPREPQVYTLPPSREEMTKNQVSLTCLVKGFYPSDIAVEWESNGQPENNYKTTPPVLDSDGSFFLYSKLTVDKSRWQQGNVFSCSVMHEALHNHYTQKSLSLSPGK
light: DIQMTQSPSSLSASVGDRVTITCRASQDIRSNLNWYQQKPGGAVKLLIYYTSRLHSGVPSRFSGSGSGTDYTLTISSLQPEDFATYFCQQSEKLPRTFGGGTKVEIRRTVAAPSVFIFPPSDEQLKSGTASVVCLLNNFYPREAKVQWKVDNALQSGNSQESVTEQDSKDSTYSLSSTLTLSKADYEKHKVYACEVTHQGLSSPVTKSFNRGECGGGGSGGGGSGGGGSGGGGSDTVLTQSPATLSLSPGERATLSCRASKSVRTGMHWYQQKPGQAPRLLVYGASNLESGIPARFSGSGSGTDFTLTISSLEPEDFATYFCHQSWNHFTFGQGTKLEIKGGGGSGGGGSGGGGSGGGGSQVQLQESGPGLVKPSETLSLTCTVSGFSLTSYNVHWIRQPPGKGLEWIGVIWSGVRTDYNSVLKSRVTISVDTSKNQFSLKLSSVTAADTAVYYCARGTYDANYHDVMDAWGQGTMVTVSS
notes: Anti-GITR/CD137: Ly1630 heavy chain; Ly1630 light chain fused to TM677 scFv (VL-VH)
B5: the binding result in test [3] is “binds”.

In general, EC50 (read off the curve) refers to the concentration giving half of the maximal effect. A lower EC50 (read off the curve) goes with greater potency.
